Measurements from the supplement of paper PMC11908140.

B1: library; numbered along this chain (parent)
chain: MRKPRAAVGSGHRKQAASQEGRQKHAKNNSQAKPSACDGLARQPEEVVLQASVSSYHLFRDVAEVTAFRGSLLSWYDQEKRDLPWRRRAEDEMDLDRRAYAVWVSEVMLQQTQVATVINYYTGWMQKWPTLQDLASASLEEVNQLWAGLGYYSRGRRLQEGARKVVEELGGHMPRTAETLQQLLPGVGRYTAGAIASIAFGQATGVVDGNVARVLCRVRAIGADPSSTLVSQQLWGLAQQLVDPARPGDFNQAAMELGATVCTPQRPLCSQCPVESLCRARQRVEQEQLLASGSLSGSPDVEECAPNTGQCHLCLPPSEPWDQTLGVVNFPRKASRKPPREESSATCVLEQPGALGAQILLVQRPNSGLLAGLWEFPSVTWEPSEQLQRKALLQELQRWAGPLPATHLRHLGEVVHTFSHIKLTYQVYGLALEGQTPVTTVPPGARWLTQEEFHTAAVSTAMKKVFRVYQGQQPGTCMGSKRSQVSSPCSRKKPRMGQQVLDNFFRSHISTDAHSLNSAAQ

Variants of: B1
Assay: 8OG:A repair function score (normalized; synonymous = 0, nonsense = -1) (normalized log-likelihood score); higher = more repair activity (WT-like)
Conditions: with 8OG:A DNA repair reporter (GFP) in HEK-293 MUTYH KO cells
Outline: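 With 10 pg/ml doxycycline, MUTYH knockout HEK-293 cells carrying lentiviral MUTYH cDNA NNN codon-scan libraries were co-transfected with mCherry and an 8OG:A GFP repair reporter. Viable mCherry+ cells were sorted into GFP+ (repair) and GFP− bins at 72 h, three replicates per tile, and tile amplicons were sequenced. Per-tile Rosace fitness scores were then normalized into a repair function score anchored on synonymous and nonsense distributions. Medians were fixed at 0 for synonymous and -1 for nonsense, excluding variants under 300 counts per million at the start.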

Going from MRKPRAAVGSGHRKQAASQEGRQKHAKNNSQAKPSACDGLARQPEEVVLQASVSSYHLFRDVAEVTAFRGSLLSWYDQEKRDLPWRRRAEDEMDLDRRAYAVWVSEVMLQQTQVATVINYYTGWMQKWPTLQDLASASLEEVNQLWAGLGYYSRGRRLQEGARKVVEELGGHMPRTAETLQQLLPGVGRYTAGAIASIAFGQATGVVDGNVARVLCRVRAIGADPSSTLVSQQLWGLAQQLVDPARPGDFNQAAMELGATVCTPQRPLCSQCPVESLCRARQRVSQEQLLASGSLSGSPDVEECAPNTGQCHLCLPPSEPWDQTLGVVNFPRKASRKPPREESSATCVLEQPGALGAQILLVQRPNSGLLAGLWEFPSVTWEPSEQLQRKALLQELQRWAGPLPATHLRHLGEVVHTFSHIKLTYQVYGLALEGQTPVTTVPPGARWLTQEEFHTAAVSTAMKKVFRVYQGQQPGTCMGSKRSQVSSPCSRKKPRMGQQVLDNFFRSHISTDAHSLNSAAQ [E285S] to MRKPRAAVGSGHRKQAASQEGRQKHAKNNSQAKPSACDGLARQPEEVVLQASVSSYHLFRDVAEVTAFRGSLLSWYDQEKRDLPWRRRAEDEMDLDRRAYAVWVSEVMLQQTQVATVINYYTGWMQKWPTLQDLASASLEEVNQLWAGLGYYSRGRRLQEGARKVVEELGGHMPRTAETLQQLLPGVGRYTAGAIASIAFGQATGVVDGNVARVLCRVRAIGADPSSTLVSQQLWGLAQQLVDPARPGDFNQAAMELGATVCTPQRPLCSQCPVESLCRARQRVHQEQLLASGSLSGSPDVEECAPNTGQCHLCLPPSEPWDQTLGVVNFPRKASRKPPREESSATCVLEQPGALGAQILLVQRPNSGLLAGLWEFPSVTWEPSEQLQRKALLQELQRWAGPLPATHLRHLGEVVHTFSHIKLTYQVYGLALEGQTPVTTVPPGARWLTQEEFHTAAVSTAMKKVFRVYQGQQPGTCMGSKRSQVSSPCSRKKPRMGQQVLDNFFRSHISTDAHSLNSAAQ [E285H], the “8OG:A repair function score” value falls from 0.0138 to -0.0454.

First: MRKPRAAVGSGHRKQAASQEGRQKHAKNNSQAKPSACDGLARQPEEVVLQASVSSYHLFRDVAEVTAFRGSLLSWYDQEKRDLPWRRRAEDEMDLDRRAYAVWVSEVMLQQTQVATVINYYTGWMQKWPTLQDLASASLEEVNQLWAGLGYYSRGRRLQEGARKVVEELGGHMPRTAETLQQLLPGVGRYTAGAIASIAFGQATGVVDGNVARVLCRVRAIGADPSSTLVSQQLWGLAQQLVDPARPGDFNQAAMELGATVCTPQRPLCSQCPVESLCRARQRVKQEQLLASGSLSGSPDVEECAPNTGQCHLCLPPSEPWDQTLGVVNFPRKASRKPPREESSATCVLEQPGALGAQILLVQRPNSGLLAGLWEFPSVTWEPSEQLQRKALLQELQRWAGPLPATHLRHLGEVVHTFSHIKLTYQVYGLALEGQTPVTTVPPGARWLTQEEFHTAAVSTAMKKVFRVYQGQQPGTCMGSKRSQVSSPCSRKKPRMGQQVLDNFFRSHISTDAHSLNSAAQ [E285K]
Second: MRKPRAAVGSGHRKQAASQEGRQKHAKNNSQAKPSACDGLARQPEEVVLQASVSSYHLFRDVAEVTAFRGSLLSWYDQEKRDLPWRRRAEDEMDLDRRAYAVWVSEVMLQQTQVATVINYYTGWMQKWPTLQDLASASLEEVNQLWAGLGYYSRGRRLQEGARKVVEELGGHMPRTAETLQQLLPGVGRYTAGAIASIAFGQATGVVDGNVARVLCRVRAIGADPSSTLVSQQLWGLAQQLVDPARPGDFNQAAMELGATVCTPQRPLCSQCPVESLCRARQRVNQEQLLASGSLSGSPDVEECAPNTGQCHLCLPPSEPWDQTLGVVNFPRKASRKPPREESSATCVLEQPGALGAQILLVQRPNSGLLAGLWEFPSVTWEPSEQLQRKALLQELQRWAGPLPATHLRHLGEVVHTFSHIKLTYQVYGLALEGQTPVTTVPPGARWLTQEEFHTAAVSTAMKKVFRVYQGQQPGTCMGSKRSQVSSPCSRKKPRMGQQVLDNFFRSHISTDAHSLNSAAQ [E285N]
The “8OG:A repair function score” value of the first is lower: -0.0741 for the first, -0.0168 for the second.

Compared with MRKPRAAVGSGHRKQAASQEGRQKHAKNNSQAKPSACDGLARQPEEVVLQASVSSYHLFRDVAEVTAFRGSLLSWYDQEKRDLPWRRRAEDEMDLDRRAYAVWVSEVMLQQTQVATVINYYTGWMQKWPTLQDLASASLEEVNQLWAGLGYYSRGRRLQEGARKVVEELGGHMPRTAETLQQLLPGVGRYTAGAIASIAFGQATGVVDGNVARVLCRVRAIGADPSSTLVSQQLWGLAQQLVDPARPGDFNQAAMELGATVCTPQRPLCSQCPVESLCRARQRVTQEQLLASGSLSGSPDVEECAPNTGQCHLCLPPSEPWDQTLGVVNFPRKASRKPPREESSATCVLEQPGALGAQILLVQRPNSGLLAGLWEFPSVTWEPSEQLQRKALLQELQRWAGPLPATHLRHLGEVVHTFSHIKLTYQVYGLALEGQTPVTTVPPGARWLTQEEFHTAAVSTAMKKVFRVYQGQQPGTCMGSKRSQVSSPCSRKKPRMGQQVLDNFFRSHISTDAHSLNSAAQ [E285T], MRKPRAAVGSGHRKQAASQEGRQKHAKNNSQAKPSACDGLARQPEEVVLQASVSSYHLFRDVAEVTAFRGSLLSWYDQEKRDLPWRRRAEDEMDLDRRAYAVWVSEVMLQQTQVATVINYYTGWMQKWPTLQDLASASLEEVNQLWAGLGYYSRGRRLQEGARKVVEELGGHMPRTAETLQQLLPGVGRYTAGAIASIAFGQATGVVDGNVARVLCRVRAIGADPSSTLVSQQLWGLAQQLVDPARPGDFNQAAMELGATVCTPQRPLCSQCPVESLCRARQRVRQEQLLASGSLSGSPDVEECAPNTGQCHLCLPPSEPWDQTLGVVNFPRKASRKPPREESSATCVLEQPGALGAQILLVQRPNSGLLAGLWEFPSVTWEPSEQLQRKALLQELQRWAGPLPATHLRHLGEVVHTFSHIKLTYQVYGLALEGQTPVTTVPPGARWLTQEEFHTAAVSTAMKKVFRVYQGQQPGTCMGSKRSQVSSPCSRKKPRMGQQVLDNFFRSHISTDAHSLNSAAQ [E285R] is higher in “8OG:A repair function score” value: -0.0287 for the first, 0.00385 for the second.
